Test results taken from the nanobody polyreactivity screen of Harvey et al. (2022).

Assay: yeast display, Sf9 membrane polyspecificity reagent, FACS + sequencing; frameworks hold sequencing errors
Method in brief: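 Nanobodies from a synthetic yeast display library (Saccharomyces cerevisiae BJ5465), induced 36–48 hours with galactose, were stained 1 hour at 4 °C with 10% biotinylated, detergent-solubilized Sf9 membrane reagent, enriched on streptavidin microbeads, then FACS-sorted. Anti-HA (expression) and streptavidin (reagent binding) fluorescence set low and high (top ~1%) gates. Polyreactivity labels come from the gate of origin. Genes were colony-PCR amplified, MiSeq 2 × 250 sequenced and filtered by CDR length.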

Sequence	polyreactivity (PSR sort gate)
QVQLVESGGGLVQAGGSLRLSCAASGSIFGKYAMGWYRQAPGKERELVAAISRSGSRTFYADSVKGRFTISRDNAKNTVYLQMNSLKPEDTAVYYCNALSGDSYSYYGYDSWGQGTQVTVSS	high polyreactivity
QVQLVESGGGLVQAGGRLRLSCAASGSIFFYYAMGWYRQAPGKERELVADITSGGTTYYADSVKGRFTISRDNAKNTVSLQMNSLIPEDTAVYYCNAGLYPGQRPDYTNYSSDYWGQGTQVTVSS	low polyreactivity
QVQLVESGGGLVQAGGSLRLSCAASGSIFLAYAMGWYRQAPGKEMELVATISVSGTTTYYADSVKGRFTISRDNAKNTVYLQMNSLKPEDTAVYYCAADQQDGLWDYQDWYDYWGQGTQVTVSS	low polyreactivity
QVQLVESGGGLVQAGGSLRLSCAASGYIFGYYVMGWYRQAPGKERELVAAITGRGGSTYYADSVKGRFTISRDNAKNTVYLQMISLKPEDTAVYDCAADATSYPYDPWHLYEIWEYYYWGQGTQVTVSS	low polyreactivity
QVQLVESGGGLVQAGGSLRLSCAASGRTFVYYDMGWYRQAPGKERELVASISSGDSTNYADSVKGRFTISRDNAKNTFYLQMNSLKPEDTAVYYCAAQYSWGHYYTFDYWGLGTQVTVSS	low polyreactivity
QVQLVESGGGLVQAGGSLRLSCAASGRTFGGNAMGWYRQAPGKERELVAAITWRGGSTYYADSVKGRFTISRDNAKNTVYLQMNSLKPEDTAVYYCNAVRTGKYVKYYRSIFDYWGQGTQVTVSS	high polyreactivity
QVPLVESGGGLVQAGGSLRLSCAASGIIFGKYTMGWYRQAPGKERELVAAISKRGGSTYYADSVKGRFTISRDNAKNTVYLQMYSLKRVDTAVYYCAAERISSYDYWGQGTQVTVSS	high polyreactivity
QVQLVESGVGLVQAGGSLRLSCAASGRIFAYYAMGWYRQAPGKERELVAAISSGGTTNYADSVKGRFTISRDNAKNTVYLQMNSLKPEDTAVYYCNADGWRRSRQYYYWGQGTQVTVSS	low polyreactivity
QVQLVESGGGLVQAGGSLRLSCAASGFTLLGYAMGWYRQAPGKERELVAAISRGGNTYYADSVKGRFTISRDNAKNTVYLQMNSLKPEDTAVYNCAAQTYSTGYVTRFNYWGQGTQVTVSS	high polyreactivity
QVQLVESGGGLVQAGGSLRLSCAASGSPFFVYAMGWYRQAPGTERELVAAISSRGSTYYADSVKGRFTIARDTAKNTVYLQMNSLKPEDTAVYYCAAEYTVSYLRMDYWGQGTQVTVSS	low polyreactivity
QVQLVESGGGLVQAGGSLRLSCAASGRTFYRYAMGWYRQAPGKERELVAAIRWSGGSTYYADSVKGRFTISRDNAKNTVYLQMNSLKPEDTAVYYCAKDTFRGYSPVKYDFWGQGTQVTVSS	low polyreactivity
QVQLVESGGGLVQAGGSLRLSCAASGRIFHSYAMGWYRQAPGKERELVASITWDSTSTNYADSVKGRFTISRDNAKNTVYLQMNSLKPEDTAVYYCNADESRYGFGYDYWGQGTQVTVSS	low polyreactivity
QVQLVESGGGLVQAGGSLRLSCAASGLILYTYAMGCYRQAPGKERELVAAINSGGRTYYADSVKGRFTISRDNAKNTVYLQMNSLKPEDTAVYYCAADYGSRVRGFNYWGQGTQVTVSS	low polyreactivity
QVQLVESGGGLVQAGGSLRLSCAASGSTLYKYAMGWYRQAPGKEREFVAAISWSGSSTYYADSVKGRFTISRDNAKNTVYLQMNSLKPEDTAVYYCAALYTHYYWIEYDYWGQGTQVTVSS	low polyreactivity
QVQLVESGGGLVQAGGSLRLSCAASGRTFLWNDMGWYRQAPGKERELVAAITGSDGTYADSVKGRFTISRDNAKNTVYLQMNSLKPEDTAVYYCAAVYSYQNEGYDYWGQGTQVTVSS	low polyreactivity
QVQLVESGGGLVQAGGSLRLSCAASGGIFDNYAMGWYRQAPGKEREFVAVISSGGTTNYADSVKGRFTISRVNAKNTVYLQMNSLKPEDTAVYYCAADYDYRQGYDSVHLDYWGQGTQVTVSS	low polyreactivity

Sequence	polyreactivity (PSR sort gate)
QVQLVESGGGLVQAGGSLRLSCAASGLTFGDYTMGWYRQAPGKERELVAAITWSGASTYSADSVKGRFTISRDNAKNTVYLQMNSLKPEDTAVYYCAAERTPSYRAYDYWAQGTQVTVSS	low polyreactivity
QVQLVESGGGLVQAGGSLRLSCDASGSTFGRNAMGCYRQAPGKESELVAAITASGGRTYYADSVKGRFTISRDNAKNTVYLQMNSLKPEDTAVYYCAAASRVGFLYYYWGQGTQVTLSS	low polyreactivity
QVQLVESGGGLVQAGGSLRLSCAASGFISSENAMGWYRQAPGKERELVAAISSGGSTNYADSVKGRFTISRDNAKNTVYLQMNSIKREDTAVYYCAATLPGWYNEDDSWGQGTQVTVSS	low polyreactivity
HVQLVESGGGLVQAGGSLRLSCAASGFTVYRYTLGWYRQAPGKERELVAAITWSGGNTYYADSVKGRFTISRDNAKNTVYLQMNSLKPEDTAVYYCAAYKPYSKSNYRGQGTQVTVSS	high polyreactivity
QVQLVESGGGLVQAGGSLRLSCAASGSTFSYYAMGWYRQAPGKERDLVASIDGSTGSTYYADSVKGRFTISRDNAKTTVYLQMNILKPEDTAVYYFNAESLDYYDNAYEYWGQGTQVTVSS	low polyreactivity
QVQVVESGGGLVQAGGSLRLSCAASGSTFYINAIGWYRQAPGNERELVAAIYFRGGSTYYADSVKGRFPISRDNAKNTVYVKMNSLKPEVTAVYYCAAYYYFFRRYSWRLSCDYWGQGTQVTVSS	low polyreactivity
QVQLVESVGGLVQAGGSLRLSCAASGSTFGYYAMGWYRQAPGKERELVATITWSGGSTNYGDSVKGRFTISRDNEKNTVYLQMKSLKPEDTAVYYCAADLKYWYFGLAFIEVDYWGQGTQVTVSS	low polyreactivity
QVQLVESGGGLVQAGGSLRLSCAASGFTFSQYAMGWYRQAPGKERELVAAINSRGGSTYYADSVKGRFTISRDNAKNTVYLQINSLKPEDTAVYYCNAVISGYPYEYDYWGQGTQVTVSS	high polyreactivity
QFQLVESGGGLVQEGGSLRLSCASSGRTFVSNAMGWYRQAPGKERELVAAISRRSGSTYYADSVKGRFTISRDNAKNTVYLQMNSLKPEDTAVYYCGAVLTRYGYDYWGQGTQVTVSS	high polyreactivity
QVQLVESGGGLVQAGGSLRLSCAASGSIFYVYAMGWYRQAPGKERELVAAISDDGDTYYADSVKGRFTISRDNAKNTVYLQMNSLNPEDTAVYYCAAEGGANEENSSPEYDYWGQGTQVTVSS	low polyreactivity
QVQLVESGGGLVQAGGSLRLSCAASGSIFKINAMGWYRQAPGKERELVATITWSTGTTYYADSVKGRFTISRDNAKNTVYLQMNSLKPEDTAVYYCATDGDSTKLDYWGQGTQVTVSS	low polyreactivity
QVQLVESGGGLVQAGGSLRLSCAASGFTFRRYAMGWYRPAPGKERELVAAITPNGGSTYYADSVKGRFTISRDNAMNNFYLQMNRLKPEDTAVYYCNAVLYTPVYDGFDSWGQGTQVTVSS	high polyreactivity
QVQLVESGGGLVQAGGSLRLSCAASGITFNVNAMGWYRQAPGKERELVAAISWRGGSTYYADSVKGRFTISRDNAKNTVYLQMNSLKPEDTAVYYCAAKLDGSSYYYWGQGTQVTVSS	low polyreactivity
QVQLVESGGGLVQAGGSLRLSCAASGRIFGRNAMGWYRPAPGKERELVADISYRGGRPYYADSVKGRFTISRDNAKNTVYLQMNSLKPEDTAVYYCNAGVYRSGGRKYDYWGQGTQVTVSS	high polyreactivity
QVQLVESGGGLVQEGASLRLSCAASGFIFLQYAMGWYRQAPGKERELVAAITSGGGTNYADSVKGRFTISRDNAKNTVYLQMNSLKPEDTAVYYCAARTWPWVLGATQDDYWGQGTQVTVSS	low polyreactivity
